For this data set, the system named is GST-KSRP. Briefly: competition. The settings on record: REMSA: 50 mM Tris-HCl pH 7.0, 150 mM NaCl, 0.25 mg/ml tRNA, 0.25 mg/ml BSA, 5% glycerol, 10 min 37°C; competition: 10 mM HEPES pH 7.4, 100 mM KCl, 5 mM MgCl2 …; scale: % HuD binding remaining at equimolar KSRP.

On to GAP-43 ARE RNA (pGAP/B transcript), for which the binding signal was found to be 50.

Values taken from paper PMC3828348.
